Reference: the domain aggregation screens of Martell et al. (2025)

assay: soluble fraction after stress (log2 fold change); higher = more stays soluble; pooled small domains, quantitative proteomics; conditions: stress: 50 degC
Summary of the method: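 Each library was heated to 50°C as a stress step. The libraries, made up of small protein domains, were pooled and analysed at high throughput by quantitative proteomics. The reported value is the base-two logarithm of the fold change in each protein's soluble amount after stress, taken as a measure of aggregation propensity. The higher the value, the more protein stays in solution.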

Going from “HMHANSDVEQLMQMGIQRLNFQRYSDALLIFNQIIENFPDYAEAWNKRATLHYLLGNLDKSIADIEQTLE” to “HMDALTLSIDAQGALYWNGQPVSRELAAQRFVEAAAQRPQPELHLRADQNVAYRHVAMTLADASRAGLTR”, the “soluble fraction (log2)” value rises from -2.54 to -0.0244.

First: HMSTSFQVQVSVLDLRIRKEPTVKGQEVGKISKGIHTITETRSADGYTWGKLESGQGWIALEFTTKLD
Second: HMQPIQPNQAKYLDGLSSKYKGKGNHSQAAQLTALRDALNAGDHAKAREIYDKLDYEPQAEAAH
The “soluble fraction (log2)” value of the first is lower: -0.194 for the first, 0.351 for the second.

Compared with “HMETYTVPEVLGLTPEQAAQLPEVKDIFTLDVKEEGDFSDKPVGTIVRQSPTEGEHRKGDNLVIEVWLSV”, “HMTDDALIGKTAQVTVAIKPGSVGQITARVGDERVERLARASADAEIAAGSLVTIKSIAGDSVIVAPE” is higher in “soluble fraction (log2)” value: -0.0593 for the first, 0.144 for the second.

Going from “HMGMDALIGRRVFVSEEILPGDTGGRMAVDGDSWRAISVGTASNIPAGTEVRIRGHQSLVLEVEP” to “HMHSFGLHVRNLRKKSNLTLSQLSNASGLSLSAISKIENNQISPSFINLIRLAEGLKMHIADLVTVK”, the “soluble fraction (log2)” value falls from -0.116 to -2.13.

Compared with “HMYVTGETIRHLRTQRRMTQEQLAETLGVTGKAVSKWETGRGFPDMSLLEPLARALRISVPELLSGE”, “HMNLNIGNNIKNIRKSKNMTQTDFAELMGLSRSYIGDLENNRSNPSIKTLEAIARALDVPIVALIN” is higher in “soluble fraction (log2)” value: -0.614 for the first, -0.399 for the second.

“HMVPFISVTPTSLSFAKGGESKTVDIEASGAFSVGKVPTGFNLEVVNGRITITADANTGAARNGSVEFILA” and “HMSKYGIAYSEVLEILKHIPIEDYNKIPRNEIELFETYADKDFTFNYDSSKTLEEQNVSNITKGIIIL” are within 0.2 log units of each other in “soluble fraction (log2)” value: -0.0614 for the first, -0.103 for the second.

Going from “HMAPLQDENGDLTFSYNGKTYTVNVNSEEDRNSFAEDFNKENGKKFSWFKERAGLQHYVFYDTEM” to “HMQITNEGQIKLVISEVLNENQEQKKQYLSGKEQVLGYLIGKVMQKTKGKANPKLVNDLMIKELS”, the “soluble fraction (log2)” value rises from -0.19 to 0.257.

Compared with “HMQYSIQVNKLLKAMREDVWYTANEILDLLKLKSKETLRKNYLDPAINNKLIILELPDKPTSRNQRYKI”, “HMAISEEEATNLALERVPGASAQDLRIQLEFDDGVQKYEGDIIYDGKEYDFEIDANTGTFLEWSE” is higher in “soluble fraction (log2)” value: -1.66 for the first, -0.151 for the second.

Compared with “HMSTANIVVPDVKGKTFEEAKKAIEAEGLTAKAEGDESGVVQKTSPSYGVSVESGSEVTLTLVKSDD”, “HMTADIRFLNSRKFYIYKVEKGETLFSISQKFNIPQEEIIQFNKDINQQGLKAKTKLWVPAYSWL” is lower in “soluble fraction (log2)” value: -0.0409 for the first, -3.38 for the second.

First: HMVLSVRDRMVQILDQVKTGEYKRIEDFFSADEGRTGFVVSFVAILELVKGGLLTITQSKNLAPIYVRLPN
Second: HMQLDDDQKEELILKLIDSLDTTKKGAPLTELAREAAKSNIGESELEEITTSLLDKGLVYEPTIGKMKR
The “soluble fraction (log2)” value of the first is lower: -0.19 for the first, 0.216 for the second.

“HMPHSTTDFSVSPDERQIVYSTNLQGRYDLWALDHNQGYPYPLTKKGQMSFFIKHLPGSQMILTGFD” and “HMDNIPAHIKAKIINYVNRNYPGAIIKDIERKSNGRYEAEIVYNNREYDLLFDAQGNFISASLDDK” are within 0.2 log units of each other in “soluble fraction (log2)” value: 0.00171 for the first, 0.123 for the second.

First: HMNEIDLEAAKRIALQNAGVESADAAFTKAQLDYDDGVAEYEIEFVAGSTKYEYEISAANGTVLKSSKESV
Second: HMNMSVGAALRRRRNELGMTLRELADEAELTSGFLSQVENDRVSPSLKSLGRIAEVLRIPLFQLLS
The “soluble fraction (log2)” value of the first is higher: -0.0497 for the first, -1.29 for the second.

First: HMDKKTMFNEALAKLVSYATAHDNLITMEDVKSFFNGLIDDDSQYKLIYDYLSINKIEIKGFT
Second: HMRDTLSKQLLTEEMVLQFIREMREHDPGIGGEKLHAMYLGRFGRDYEYMVGRDKMEMIIAENNLNVR
The “soluble fraction (log2)” value of the first is higher: 0.2 for the first, -0.736 for the second.

“HMDPSDQLYTVPPSAEGLRLDLFLVQHVPHMTRALATQLTGAGQVRVNGRRAKKGDRLPSGAQVRLEQAP” and “HMDSVEMFSPILGMNANMDLDTLTQTRDKLLEKYKDDEQLIGLVNKTYDYFNEILLKQFLIEELEKNE” are within 0.2 log units of each other in “soluble fraction (log2)” value: -0.256 for the first, -0.153 for the second.

Going from “HMGMTAPIPGVVLKVSVLPGQKVERGDELLTIEAMKMFNVMRSPSSGTIATVHIKDGDRVVQGQPLVTFA” to “HMKSLLSRREQEVLELVSRGFSYSEIAELKNLSVHTIQTHIKSLYGKLEVHSKMEAVLEATRMGLLPQ”, the “soluble fraction (log2)” value falls from 0.025 to -1.8.

First: HMEVVELTDDEKMILATLHDGPVEIGHIKQVVGLSGKKWDAATKSLRQKGLINVVLENEQKLMVK
Second: HMVNSADLAAKPFIDLLVSTRQQLREAKQYDLADTIRDELTNHGITIEDKPQGSEWQYEFNPNS
The “soluble fraction (log2)” value of the first is higher: 0.422 for the first, 0.112 for the second.

First: HMVDITPDLIRTLLERFGEYGVTKEHIEARIQRHIESILPAQVVQLRKTYNSLKDGMSQPSDWFDI
Second: HMGTHVVQEGEYLDLIIEKTIPGSPIRKDLLRKAFVKLNPSAFGGRGNPNYIFARKKLKVPSVEDLKAVIF
The “soluble fraction (log2)” value of the first is lower: -1.26 for the first, -0.0708 for the second.

Compared with “HMVEFLMESTNGMYGIVKEGSSYYVQKGINESSLDYIGGMFMKDKNRFSSYSTALKRLELISGQET”, “HMLPQGKGTAMWLADHLAAASVTLDAGARKLLEDTLGEDMSRLPGVLRVLEATFGSDAGRLSAEDIEPFL” is higher in “soluble fraction (log2)” value: -0.328 for the first, 0.31 for the second.

Going from “HMLTQEEITRRRGEILTAAMGVILRKGFLETSMREIAEAAGVGKSTLYDYFPSKDEIMIAYVVD” to “HMAAVAPPVLERIASDLATRFAGTLSPETVDRYVRESYHLLAERAGITRYLPSLTARFAGDRLDA”, the “soluble fraction (log2)” value rises from -0.938 to 0.0481.
